According to doi:10.1101/2025.05.21.655431 (bioRxiv, 2025):
Read-outs that look alike come from different tables or passages of the source. Values belong to the binder of their own block, whether it stands above or below them.

Assays:
His-WRKY48 (recombinant) = His-WRKY48 (recombinant) (Arabidopsis thaliana, UniProt Q9FGZ4 1-399); experiment: pull-down
WRKY28 [1] = biological target: T1, WRKY28 (Arabidopsis thaliana, UniProt Q8VWJ2 1-318); experiment: EMSA
WRKY8 [2] = biological target: T2, WRKY8 (Arabidopsis thaliana, UniProt Q9FL26 1-326); experiment: EMSA
T2 sequence (Q9FL26 whole entry): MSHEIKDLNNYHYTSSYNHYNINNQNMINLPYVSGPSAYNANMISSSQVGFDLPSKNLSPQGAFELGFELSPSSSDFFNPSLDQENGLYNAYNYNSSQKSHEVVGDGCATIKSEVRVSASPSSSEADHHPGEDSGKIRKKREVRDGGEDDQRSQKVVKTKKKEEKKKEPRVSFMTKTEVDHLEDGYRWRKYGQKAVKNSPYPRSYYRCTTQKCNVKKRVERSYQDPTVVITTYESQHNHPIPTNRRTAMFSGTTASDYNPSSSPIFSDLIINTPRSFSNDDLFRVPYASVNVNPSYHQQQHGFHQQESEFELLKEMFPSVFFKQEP

WRKY48 [3] = biological target: T3, WRKY48 (Arabidopsis thaliana, UniProt Q9FGZ4 1-399); experiment: EMSA
T3 sequence (Q9FGZ4 whole entry): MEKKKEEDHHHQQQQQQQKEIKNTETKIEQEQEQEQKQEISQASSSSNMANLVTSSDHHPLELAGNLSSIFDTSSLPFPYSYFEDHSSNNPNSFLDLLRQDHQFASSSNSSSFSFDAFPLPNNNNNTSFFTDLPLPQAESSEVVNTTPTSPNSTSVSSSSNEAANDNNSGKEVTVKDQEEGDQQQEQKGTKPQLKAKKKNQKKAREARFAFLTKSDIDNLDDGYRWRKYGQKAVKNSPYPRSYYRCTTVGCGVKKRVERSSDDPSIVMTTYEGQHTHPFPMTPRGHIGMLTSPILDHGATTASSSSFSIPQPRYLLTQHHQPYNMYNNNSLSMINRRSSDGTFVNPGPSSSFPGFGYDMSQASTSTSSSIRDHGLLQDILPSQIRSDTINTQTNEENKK

WRKY28 [4] = biological target: T1, WRKY28; experiment: EMSA; remark: listed apart in the source
WRKY48 [5] = biological target: T3, WRKY48; experiment: EMSA; remark: listed apart in the source
WRKY8 [6] = biological target: T2, WRKY8; experiment: EMSA; remark: listed apart in the source

T1 sequence (Q8VWJ2 whole entry): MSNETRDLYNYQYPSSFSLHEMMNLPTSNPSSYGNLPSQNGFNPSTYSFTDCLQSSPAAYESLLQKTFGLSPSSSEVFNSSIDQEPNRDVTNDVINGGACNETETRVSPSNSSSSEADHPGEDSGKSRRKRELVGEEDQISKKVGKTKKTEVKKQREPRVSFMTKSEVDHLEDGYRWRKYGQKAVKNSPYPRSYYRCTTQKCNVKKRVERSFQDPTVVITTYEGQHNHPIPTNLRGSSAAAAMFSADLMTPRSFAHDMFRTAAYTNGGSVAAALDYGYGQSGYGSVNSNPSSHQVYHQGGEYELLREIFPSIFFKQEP
His-WRKY48 (recombinant), sequence (Q9FGZ4 whole entry): as the sequence (Q9FGZ4 whole entry) above

- binding result (His-WRKY48 (recombinant)): binds
B1: GST-MPK3 (recombinant) (enzyme, Arabidopsis thaliana, UniProt Q39023 1-370, looked up)
chain: MNTGGGQYTDFPAVETHGGQFISYDIFGSLFEITSKYRPPIIPIGRGAYGIVCSVLDTETNELVAMKKIANAFDNHMDAKRTLREIKLLRHLDHENIIAIRDVVPPPLRRQFSDVYISTELMDTDLHQIIRSNQSLSEEHCQYFLYQLLRGLKYIHSANIIHRDLKPSNLLLNANCDLKICDFGLARPTSENDFMTEYVVTRWYRAPELLLNSSDYTAAIDVWSVGCIFMELMNRKPLFPGKDHVHQMRLLTELLGTPTESDLGFTHNEDAKRYIRQLPNFPRQPLAKLFSHVNPMAIDLVDRMLTFDPNRRITVEQALNHQYLAKLHDPNDEPICQKPFSFEFEQQPLDEEQIKEMIYQEAIALNPTYG

B2: CIPK6 promoter P1 (TTGACA) (dsDNA)
DNA 1: CATCGCTATCCAAATAATTGACAAACTCGAAGCCGCC
DNA 2: GGCGGCTTCGAGTTTGTCAATTATTTGGATAGCGATG
- binding result (WRKY28 [1]): no binding
- binding result (WRKY8 [2]): no binding
- binding result (WRKY48 [3]): binds

B3: CIPK6 promoter P2 (GGTCA) (dsDNA)
DNA 1: GTTTAATTACTATCACACCGGTCACGCTGGTTTACC
DNA 2: GGTAAACCAGCGTGACCGGTGTGATAGTAATTAAAC
- binding result (WRKY28 [1]): no binding
- binding result (WRKY8 [2]): no binding

B4: CIPK6 promoter P1+P2 (dsDNA)
DNA 1: TAAATCGCATCGTGACCGGTCATAAAAAGACACGTGTCGTCATCGCTATCCAAATAATTGACAAACTCGAAGCCGCCAAGGG
DNA 2: CCCTTGGCGGCTTCGAGTTTGTCAATTATTTGGATAGCGATGACGACACGTGTCTTTTTATGACCGGTCACGATGCGATTTA
- binding result (WRKY28 [4]): no binding
- binding result (WRKY48 [5]): binds
- binding result (WRKY8 [6]): no binding
